Here are results for two molecules from patent US20160340429A1 (KADMON, published 2016).

In experiment [1] the target is T1, soluble human PDL1 (human, UniProt Q9NZQ7 19-239, limits assumed).
T1 construct: May be the same protein as the human PDL1-Fc; also called soluble PDL1
In words: binding assay of FIG. 17.

The target of experiment [2] is T2, soluble mouse PDL1 (mouse, UniProt Q9EP73 19-238, limits assumed).
T2 construct: May be the same protein as the murine PDL1-Fc
Put plainly: binding assay of FIG. 17.

The target of experiment [3] is T3, human PDL2 (human, UniProt Q9BQ51 20-219, limits assumed).
T3 sequence (looked up): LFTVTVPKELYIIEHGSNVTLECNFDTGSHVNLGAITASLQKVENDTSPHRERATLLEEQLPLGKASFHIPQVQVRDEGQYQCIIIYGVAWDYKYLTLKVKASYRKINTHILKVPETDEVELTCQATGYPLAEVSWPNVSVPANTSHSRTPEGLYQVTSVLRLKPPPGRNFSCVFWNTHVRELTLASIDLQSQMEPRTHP
In words: binding assay of FIG. 17.

For experiment [4], the target named is T4, human PD-L1 on cells (PDLI-293 / HEK-293 cells expressing PD-L1, MDA-MB-231 cells, activated CD4 cells, … (human, UniProt Q9NZQ7 19-290)).
T4 construct: whole, on cells
T4 sequence (Q9NZQ7 19-290): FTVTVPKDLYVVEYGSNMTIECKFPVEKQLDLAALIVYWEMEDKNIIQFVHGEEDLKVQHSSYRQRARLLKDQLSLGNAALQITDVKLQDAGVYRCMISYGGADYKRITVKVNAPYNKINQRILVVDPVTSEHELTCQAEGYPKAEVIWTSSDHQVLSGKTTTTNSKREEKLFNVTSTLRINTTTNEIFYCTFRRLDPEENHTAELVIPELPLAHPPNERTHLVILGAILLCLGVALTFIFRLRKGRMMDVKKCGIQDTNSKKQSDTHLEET
Put plainly: binding to MDA-MB-231 cells, FIG. 19.

T2 sequence (Q9EP73 19-238 limits assumed): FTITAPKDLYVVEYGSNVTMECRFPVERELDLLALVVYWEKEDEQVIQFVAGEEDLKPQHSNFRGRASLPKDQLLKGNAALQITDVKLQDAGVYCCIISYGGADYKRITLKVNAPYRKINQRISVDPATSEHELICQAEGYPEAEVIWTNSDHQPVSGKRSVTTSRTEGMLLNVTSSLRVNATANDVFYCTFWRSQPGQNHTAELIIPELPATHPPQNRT
T1 sequence (Q9NZQ7 19-239 limits assumed): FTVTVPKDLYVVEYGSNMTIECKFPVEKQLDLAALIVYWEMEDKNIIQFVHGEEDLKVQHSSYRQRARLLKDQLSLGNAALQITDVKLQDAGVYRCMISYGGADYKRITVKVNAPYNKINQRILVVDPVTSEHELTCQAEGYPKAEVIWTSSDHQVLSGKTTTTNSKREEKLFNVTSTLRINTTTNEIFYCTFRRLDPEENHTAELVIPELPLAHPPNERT

B1: tccD7_#114 (antibody, V domains shown)
VH: EVQLLESGGGLVQPGGSLRLSCAASGFTFSSYLMVWVRQAPGKGLEWVSSIYPSGGITFYADSVKGRFTISRDNSKNTLYLQMNSLRAEDTAIYYCARIKLGTVTTVDYWGQGTLVTVSS
VL: QSALTQPASVSGSPGQSITISCTGTSSDVGAYNYVSWYQQHPGKAPKLMIYDVSNRPSGVSNRFSGSKSGNTASLTISGLQAEDEADYYCSSYTSSSTRVFGTGTKVTVLG
notes: converted to IgG and to an IgG with two Leu-Ala substitutions
Turning to B1, the binding result is given as “binds” in experiment [1], “binds” in experiment [2], “no binding” in experiment [3] and “binds” in experiment [4].

B2: tccD7_#102 (antibody, V domains shown)
VH: EVQLLESGGGLVQPGGSLRLSCAASGFTFSAYRMFWVRQAPGKGLEWVSSIYPSGGITFYADSVKGRFTISRDNSKNTLYLQMNSLRAEDTAIYYCARIKLGTVTTVDYWGQGTLVTVSS
VL: QSALTQPASVSGSPGQSITISCTGTSSDVGAYNYVSWYQQHPGKAPKLMIYDVSNRPSGVSNRFSGSKSGNTASLTISGLQAEDEADYYCSSYTSSSTRVFGTGTKVTVLG
notes: converted to IgG and to an IgG with two Leu-Ala substitutions; also called tccD7_#2; cD7_#2
On to B2, for which the binding result in experiment [1] is reported as “binds”; in experiment [2], “binds”; in experiment [3] it was “no binding”; in experiment [4], “binds”.
